As usually defined, the Kd is the equilibrium constant for the complex coming apart. As a reminder, the koff is the first-order rate constant of dissociation. Broadly, the kon is the rate constant with which the complex forms.

Data on two molecules can be found in patent US20140154256A1 (published 2014).

The target of experiment [1] is T1, recombinant human IL-1β (human, UniProt P01584 117-269).
T1 construct: also called rhIL-1β; hIL-1β
The experiment is described as follows: SPR (Biacore); hIL-1β as 1st antigen. The method, then:
(§1) The equilibrium dissociation constant (M) of the reaction between DVD-Ig and rhIL1α/β was then calculated from the kinetic rate constants by the following formula: KD=koff/kon. Aliquots of rhIL1α/β samples were also simultaneously injected over a blank reference and reaction CM surface to record and subtract any nonspecific binding background to eliminate the majority of the refractive index change and injection noise. Surfaces were regenerated with two subsequent […] injections of 10 mM Glycine (pH 1.5) at a flow rate of […]. The anti-Fc antibody immobilized surfaces were completely regenerated and retained their full capture capacity over twelve cycles. The apparent stoichiometry of the captured DVD-Ig-rhIL1α/β complex was calculated under saturating binding conditions (steady-state equilibrium) using the following formula: […]
(§2) In addition, tetravalent dual-specific antigen binding of DVD-Ig was also analyzed by Biacore (Table 14). DVD-Ig was first captured via a goat anti-human Fc antibody on the Biacore sensor chip, and the first antigen was injected and a binding signal observed. As the DVD-Ig was saturated by the first antigen, the second antigen was then injected and the second signal observed. This was done either by first injecting IL-1β then IL-1α or by first injecting IL-1α followed by IL-1β for DVD2-Ig. In either sequence, a dual-binding activity was detected. […]

For experiment [2], the target named is T1, recombinant human IL-1β. The experiment is described as follows: cell-based or functional assay.
In experiment [3] the target is T2, recombinant human IL-1α (human, UniProt P01583 113-271).
T2 sequence (looked up): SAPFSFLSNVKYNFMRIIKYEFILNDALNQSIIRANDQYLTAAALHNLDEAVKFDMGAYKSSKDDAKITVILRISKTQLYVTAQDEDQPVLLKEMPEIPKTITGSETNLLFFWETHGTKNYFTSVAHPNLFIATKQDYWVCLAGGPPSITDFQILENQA
The experiment can be described thus: cell-based or functional assay.

Experiment [4] has as its target T2, recombinant human IL-1α. The experiment is described as follows: SPR (Biacore). The method, then: as §1, with “Purified DVD-Ig samples were diluted in HEPES-buffered saline for capture across goat anti-human IgG Fc specific reaction surfaces and injected over reaction matrices at a flow rate of […]. The association and dissociation rate constants, kon (M-1s-1) and koff (s−1) were determined under a continuous flow rate of […]. […] The equilibrium” for “The equilibrium”
(§3) The affinity of the two DVD-Igs to hIL-1 as compared to the affinity of chimeric Abs to hIL-1 was similar as indicated by the evaluation of the stoichiometry to IL-1. Both chimeric Abs, being bivalent monospecific, bound to IL-1α and IL-1β on Biocore with a stoichiometry of 1.6 and 1.7, respectively. This is common for an IgG due to inter-molecular interference when antibodies are immobilized densely on the Biacore sense chip resulting in stoichiometry being in the range from 1.5 to 2.0.

For experiment [5], the target named is T1, recombinant human IL-1β. The experiment can be described thus: SPR (Biacore); hIL-1β as 2nd antigen, DVD1-Ig already occupied by hIL-1α. The method, then: as §1, §2
The target in experiment [6] is T2, recombinant human IL-1α. The experiment can be described thus: SPR (Biacore); hIL-1α as 2nd antigen, DVD1-Ig already occupied by hIL-1β. The method, then:
as §1, §2

The target in experiment [7] is T1, recombinant human IL-1β. The experiment can be described thus: cell-based or functional assay. This is another data set of the same source.
Experiment [8] deals with T2, recombinant human IL-1α. The experiment is described as follows: cell-based or functional assay. The source holds these as a separate data set.
Experiment [9] concerns the target T2, recombinant human IL-1α. The experiment is described as follows: SPR (Biacore); hIL-1α as 1st antigen. The method, then: as §1, §2
For orientation: In SPR one partner is held on a chip, and binding of the other changes the refractive index at the surface.

In experiment [10] the target is T1, recombinant human IL-1β. The experiment can be described thus: SPR (Biacore 3000); antibody captured via goat anti-human IgG Fc, antigen injected, 1:1 Langmuir fit. The method, then: (§4) The kinetics of DVD-Ig binding to rhIL1-α and rhIL1-β was determined by surface plasmon resonance-based measurements with a Biacore 3000 instrument (Biacore AB, Uppsala, Sweden) using HBS-EP (10 mM HEPES, pH 7.4, 150 mM NaCl, 3 mM EDTA, and 0.005% surfactant P20) at 25° C. All chemicals were obtained from Biacore AB (Uppsala, Sweden) or otherwise from a different source as described herein. Approximately, 5000 RU of goat anti-human IgG Fcγ fragment specific polyclonal antibody (Pierce Biotechnology Inc, Rockford, Ill.) diluted in 10 mM sodium acetate (pH 4.5) was directly immobilized across a CM5 research grade biosensor chip using a standard amine coupling kit according to manufacturer's instructions and procedures at 25 mg/ml. Unreacted moieties on the biosensor surface were blocked with ethanolamine. Modified carboxymethyl dextran surface in flowcell 2 and 4 was used as a reaction surface. Unmodified carboxymethyl dextran without goat anti-human IgG in flow cell 1 and 3 was used as the reference surface. For kinetic analysis, rate equations derived from the 1:1 Langmuir binding model were fitted simultaneously to association and dissociation phases of all ten injections (using global fit analysis) using the Bioevaluation 4.0.1 software. Purified DVD-Ig samples were diluted in HEPES-buffered saline for capture across goat anti-human IgG Fc specific reaction surfaces and injected over reaction matrices at a flow rate of […]. The association and dissociation rate constants, kon (M-1s-1) and koff (s−1) were determined under a continuous flow rate of […]. […] The equilibrium dissociation constant (M) of the reaction between DVD-Ig and rhIL1α/β was then calculated from the kinetic rate constants by the following formula: KD=koff/kon. Aliquots of rhIL1α/β samples were also simultaneously injected over a blank reference and reaction CM surface to record and subtract any nonspecific binding background to eliminate the majority of the refractive index change and injection noise. Surfaces were regenerated with two subsequent […] injections of 10 mM Glycine (pH 1.5) at a flow rate of […]. The anti-Fc antibody immobilized surfaces were completely regenerated and retained their full capture capacity over twelve cycles.

Experiment [11] addresses T2, recombinant human IL-1α. The description is as above. The method, then: as §4
In experiment [12] the target is T1, recombinant human IL-1β. The experiment can be described thus: SPR (Biacore), saturating conditions.
In experiment [13] the target is T2, recombinant human IL-1α. The experiment is described as follows: SPR (Biacore), saturating conditions.
For experiment [14], the target named is T2, recombinant human IL-1α. The experiment is described as follows: SPR (Biacore); hIL-1α as 2nd antigen, DVD2-Ig already occupied by hIL-1β. The method, then:
as §1, §2

Experiment [15] has as its target T1, recombinant human IL-1β. The experiment is described as follows: SPR (Biacore). The method, then:
as §1, with “Purified DVD-Ig samples were diluted in HEPES-buffered saline for capture across goat anti-human IgG Fc specific reaction surfaces and injected over reaction matrices at a flow rate of […]. The association and dissociation rate constants, kon (M-1s-1) and koff (s−1) were determined under a continuous flow rate of […]. […] The equilibrium” for “The equilibrium”
as §3

For experiment [16], the target named is T1, recombinant human IL-1β. The experiment can be described thus: SPR (Biacore); hIL-1β as 2nd antigen, DVD2-Ig already occupied by hIL-1α. The method, then:
as §1, §2

B1: hIL-1α/βDVD1-Ig (bispecific antibody, human IgG1, kappa)
heavy: not shown
light: NIVLTQSPASLAVSLGQRATISCRASESVDSYGNSYMHWYQQKPGQPPKLLIYLASNLESGVPARFSGSGSRTDFTLTIDPVEADDAATYYCQQNNEDPFTFGSGTKLEIKRNIQMTQTTSSLSASLGDRVTISCRASQDISNCLNWYQQKPDGTVKLLIYYTSRLHSGVPSRFSGSGSGTDYSLTISNLEQEDIATYFCQQGKTLPYAFGGGTKLEINRTVAAPSVFIFPPSDEQLKSGTASVVCLLNNFYPREAKVQWKVDNALQSGNSQESVTEQDSKDSTYSLSSTLTLSKADYEKHKVYACEVTHQGLSSPVTKSFNRGEC
notes: 13F5.G5 variable domains fused directly (no linker) to the N-terminus of 3D12.E3 variable domains, human Cγ1/Cκ; also called hIL-1a/bDVD1-Ig
Take B1: the entries for the “Stoichiometry hILβ:DVD-Ig” value with recombinant human IL-1β [1] and with recombinant human IL-1β [5] were 1.5 and 1, respectively. Further, the “dual-inhibition activity, MRC-5 assay with equal amounts of hIL-1α and hIL-1β both present” value in the experiment with recombinant human IL-1β [2] and in the experiment with recombinant human IL-1α [3] was 2.2 nM each time. In addition, the “fold lower affinity than the chimeric 3D12.E3 Ab” value with recombinant human IL-1α [4] lay in the range of 2 to 3 fold. For the same molecule, the “Stoichiometry hIL1α:DVD-Ig” value with recombinant human IL-1α [6] turned out to be 1.1; with recombinant human IL-1α [9], 2.3. For the same molecule, the “Potency (IC50) M, MRC-5 bioassay” value in the experiment with recombinant human IL-1β [7] was determined as 3.1 nM; in the experiment with recombinant human IL-1α [8], 2.3 nM. The Kd with recombinant human IL-1β [10] stood at 2.6 nM; with recombinant human IL-1α [11], 2.83 nM. The dissociation rate constant (koff) turned out to be 0.00159 s⁻¹ in the experiment with recombinant human IL-1β [10] and 0.000105 s⁻¹ with recombinant human IL-1α [11]. In addition, the on-rate (kon) came to 609000 M⁻¹ s⁻¹ in the experiment with recombinant human IL-1β [10] and 37000 M⁻¹ s⁻¹ in the experiment with recombinant human IL-1α [11]. The values for the Stoichiometry with recombinant human IL-1β [12] and with recombinant human IL-1α [13] were 1.5 and 1.8, respectively.

B2: hIL-1α/βDVD2-Ig (bispecific antibody, human IgG1, kappa)
heavy: not shown
light: NIVLTQSPASLAVSLGQRATISCRASESVDSYGNSYMHWYQQKPGQPPKLLIYLASNLESGVPARFSGSGSRTDFTLTIDPVEADDAATYYCQQNNEDPFTFGSGTKLEIKRADAAPNIQMTQTTSSLSASLGDRVTISCRASQDISNCLNWYQQKPDGTVKLLIYYTSRLHSGVPSRFSGSGSGTDYSLTISNLEQEDIATYFCQQGKTLPYAFGGGTKLEINRTVAAPSVFIFPPSDEQLKSGTASVVCLLNNFYPREAKVQWKVDNALQSGNSQESVTEQDSKDSTYSLSSTLTLSKADYEKHKVYACEVTHQGLSSPVTKSFNRGEC
notes: 13F5.G5 V - linker (AKTTPP heavy, ADAAP light) - 3D12.E3 V - human Cγ1/Cκ; also called hIL-1a/bDVD2-Ig
As for B2, the “Stoichiometry hILβ:DVD-Ig” value in the experiment with recombinant human IL-1β [1] amounted to 1.6; with recombinant human IL-1β [16] it was 1.3. Moreover, the “Stoichiometry hIL1α:DVD-Ig” value is 1.2 with recombinant human IL-1α [14] and 1.8 in the experiment with recombinant human IL-1α [9]. For the same molecule, the “dual-inhibition activity, MRC-5 assay with equal amounts of hIL-1α and hIL-1β both present” value with recombinant human IL-1β [2] and with recombinant human IL-1α [3] was 1.2 nM in each case. Besides, in the experiment with recombinant human IL-1β [15], the “fold higher affinity than DVD1-Ig” value worked out at 3 fold. Also, in the experiment with recombinant human IL-1α [4], the “fold lower affinity than the chimeric 3D12.E3 Ab” value is 3 fold.
